The values that follow come from article PMC10023864.

Series [1] deals with T1, hnRNPK KH3 (Homo sapiens, UniProt P61978 384-463). The series can be described thus: ITC. A general note: ITC needs no label: the signal is the heat of the interaction.
Series [2] addresses T1, hnRNPK KH3. Put plainly: ITC. The source holds these as a separate data set.

Like-named read-outs stand apart in the source and are kept apart here.

T1 sequence (P61978 384-463): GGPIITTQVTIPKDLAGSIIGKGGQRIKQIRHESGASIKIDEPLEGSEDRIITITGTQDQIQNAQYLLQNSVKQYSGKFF

B1: mutant heptamer RNA (ssRNA)
RNA: CUAAAGC
On to B1, for which the binding result with hnRNPK KH3 [1] is recorded as “no binding”.

B2: heptamer RNA (ssRNA)
RNA: CUCCCGC
A word on the Kd: it is the constant that tells how readily two partners part at equilibrium. Low readings indicate tighter binding, high ones weaker binding. For the molecule B2, the Kd with hnRNPK KH3 [2] is 4.74 ± 1 µM; with hnRNPK KH3 [1] it was 4.31 ± 0.68 µM.
